Biological target: DNAJB1 (recombinant, as used in SPR) (human) (UniProt P25685)
Test: SPR

Chain of UniProt P25685 (P25685 whole entry): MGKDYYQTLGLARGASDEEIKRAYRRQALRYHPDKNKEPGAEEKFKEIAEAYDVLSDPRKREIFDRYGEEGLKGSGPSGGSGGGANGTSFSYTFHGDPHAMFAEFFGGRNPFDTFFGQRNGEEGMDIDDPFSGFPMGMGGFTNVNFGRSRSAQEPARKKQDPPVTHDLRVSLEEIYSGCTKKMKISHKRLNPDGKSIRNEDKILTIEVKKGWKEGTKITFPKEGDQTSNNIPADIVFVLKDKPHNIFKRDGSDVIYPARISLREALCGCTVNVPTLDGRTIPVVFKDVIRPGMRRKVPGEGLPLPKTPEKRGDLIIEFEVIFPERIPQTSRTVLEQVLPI

| Kd [nM] | Substance |
| --- | --- |
| 3420 | K27-linked tetraubiquitin (synthetic) (from UniProt P0CG48 1-76) |
| 1830 | K27-linked diubiquitin (chemically synthesized; tag not told for the experiment) (from UniProt P0CG48 1-76; P0CG48 1-76) |
